B1: CPEB3 Ribozyme (parent)
chain: UAACAGGGGGCCACAGCAGAAGCGUUCACGUCGCAGCCCCUGUCAGAUUCUGGUGAAUCUGCGAAUUCUGCUGUAUAUCUC

Variants of: B1
Experiment: self-cleavage, relative activity (ratio to wild type); higher = more cleavage; in vitro, sequencing
Method in brief: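 Relative activity was defined as the cleaved/total read fraction for a variant divided by the same fraction for the unmutated ribozyme. CPEB3 self-cleaving ribozyme libraries were made by rounds of error-prone PCR, barcoded, and transcribed in vitro with T7 RNA polymerase for 5 hours at 37°C, and cleavage ran through transcription plus a 15 min DNase I step before EDTA. Illumina sequencing of template-switched reverse transcripts gave the reads, and DNA sequencing mapped the barcodes. Averages come from three batches, using variants with at least 5 reads.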
In the case of C17A U78C, the self-cleavage is reported as 0.21. G16U U41C gave a self-cleavage of 0.41. A18C A47G gave a self-cleavage of 0.26. Work on A18C A65G yielded a self-cleavage of 0.26. Variant A18C A65U has a self-cleavage of 0.16. For A18C U26C, the self-cleavage was 0.44. G16C U41C gave a self-cleavage of 0.42. In the case of A15U U76C, the self-cleavage is reported as 0.88. Variant A15U U76A has a self-cleavage of 1.17. In the case of G16A A45C, the self-cleavage is reported as 0.14. G16A A45G gave a self-cleavage of 0.45. Variant C17G A65G has a self-cleavage of 0.25. In the case of C17G A65U, the self-cleavage is reported as 0.19. C17A A35G showed a self-cleavage of 0.49. With C17A A20G the self-cleavage was 0.3. C17G A28C showed a self-cleavage of 0.21. C17G A28G showed a self-cleavage of 0.16. A18C C34U gave a self-cleavage of 0.22. For C17U A21G, the self-cleavage was 0.32. With C17U A21C the self-cleavage was 0.12. In the case of A18C A20G, the self-cleavage is reported as 0.44. Variant A18C A20U has a self-cleavage of 0.15. C17A A65U showed a self-cleavage of 0.15. Work on C17A U26A yielded a self-cleavage of 0.36. With C17U U49C the self-cleavage was 0.15. C17G A47G showed a self-cleavage of 0.28. G16A C79A showed a self-cleavage of 0.81. Variant C17A G53A has a self-cleavage of 0.68. C17U U78C showed a self-cleavage of 0.63. Work on C17G U54A yielded a self-cleavage of 0.54. G16C C50U showed a self-cleavage of 0.18. C17U A18G showed a self-cleavage of 0.23. In the case of C17U A57G, the self-cleavage is reported as 0.51. G16C G24C showed a self-cleavage of 0.2. With G16U U80C the self-cleavage was 0.7. G16U U80A gave a self-cleavage of 0.52. Work on C17U U69G yielded a self-cleavage of 0.25. Work on C17U U69C yielded a self-cleavage of 0.21. C17U U69A showed a self-cleavage of 0.4. For A18C C27U, the self-cleavage was 0.21. A18C A35U showed a self-cleavage of 0.16. With A18C A35G the self-cleavage was 1.03. C17U G36A gave a self-cleavage of 0.17. G16C A20G gave a self-cleavage of 0.11. For C17G U80A, the self-cleavage was 0.37. With G16A C27A the self-cleavage was 0.17. G16A U51A showed a self-cleavage of 0.57. G16A U51C gave a self-cleavage of 0.18. For A18C C50A, the self-cleavage was 0.12. A18C C50U gave a self-cleavage of 0.51. Variant G16A U60C has a self-cleavage of 0.19. With G16C C37U the self-cleavage was 0.16. For C17U A45G, the self-cleavage was 0.65. With G16C U60C the self-cleavage was 0.2. Work on G16C U60A yielded a self-cleavage of 0.29. In the case of G16C A64U, the self-cleavage is reported as 0.28. With G16C A28U the self-cleavage was 0.24. G16C A28G showed a self-cleavage of 0.15. Variant G16U A35U has a self-cleavage of 0.23. In the case of A18C U31A, the self-cleavage is reported as 0.19. A18C U31C gave a self-cleavage of 0.28. A18C C62U showed a self-cleavage of 0.39. Variant G16A U69G has a self-cleavage of 0.2. G16A U69A gave a self-cleavage of 0.19. With G16A U69C the self-cleavage was 0.16. A18C C32U gave a self-cleavage of 0.43. Variant C17A A18U has a self-cleavage of 0.11. C17A A18G gave a self-cleavage of 0.48. G16U G24U gave a self-cleavage of 0.11. Variant G16U G24A has a self-cleavage of 0.19. Work on G16U C39U yielded a self-cleavage of 0.46. Variant A18C U25C has a self-cleavage of 0.27. With G16U U74C the self-cleavage was 0.58. In the case of C17A U67C, the self-cleavage is reported as 0.44. With A18C C39A the self-cleavage was 0.41. C17U U80C showed a self-cleavage of 0.85. With C17U U76C the self-cleavage was 0.83. C17A U41A gave a self-cleavage of 0.1. Work on G16C A35G yielded a self-cleavage of 0.83. With C17U U67C the self-cleavage was 0.22. C17G A35U gave a self-cleavage of 0.32. C17G A35G gave a self-cleavage of 1.04. Work on G16U A18G yielded a self-cleavage of 0.29. In the case of G16A U31G, the self-cleavage is reported as 0.47. G16A U31A gave a self-cleavage of 0.19. Variant A18C A28G has a self-cleavage of 0.29. For A18C A28C, the self-cleavage was 0.43. In the case of A18C A28U, the self-cleavage is reported as 0.37. G16C U74A gave a self-cleavage of 0.38. G16C U74C gave a self-cleavage of 0.25. In the case of C17G A18G, the self-cleavage is reported as 0.11. For C17G A18U, the self-cleavage was 0.4. For C17A A45U, the self-cleavage was 0.22. With C17U U26C the self-cleavage was 0.29. In the case of C17U U26G, the self-cleavage is reported as 0.09. Work on C17U U26A yielded a self-cleavage of 0.6. A18C C29U showed a self-cleavage of 0.31. G16A G73C gave a self-cleavage of 0.86. C17G A64U gave a self-cleavage of 0.17. Work on C17G A64G yielded a self-cleavage of 0.35. With C17A U49C the self-cleavage was 0.19. G16U U54G showed a self-cleavage of 0.55. For A18C G30A, the self-cleavage was 0.31. For G16U U76A, the self-cleavage was 0.33. C17U A56G showed a self-cleavage of 0.47. With C17U A56U the self-cleavage was 0.22. Work on C17U C68U yielded a self-cleavage of 0.51. Variant C17U U72C has a self-cleavage of 0.74. C17U U72A gave a self-cleavage of 0.21. C17U U72G gave a self-cleavage of 0.4. G16A A77G gave a self-cleavage of 0.54. C17U U41A showed a self-cleavage of 0.24. C17U U41G gave a self-cleavage of 0.37. For C17U U41C, the self-cleavage was 0.32. C17A U72G gave a self-cleavage of 0.16. Work on C17U C71A yielded a self-cleavage of 0.15. For A18C A64G, the self-cleavage was 0.38. With C17U U54C the self-cleavage was 0.66. C17U C38A showed a self-cleavage of 0.39. Variant C17G U72C has a self-cleavage of 0.31. Work on C17G U72A yielded a self-cleavage of 0.21. Work on C17U G73A yielded a self-cleavage of 1.09. With C17U U25A the self-cleavage was 0.27. In the case of C17U U25C, the self-cleavage is reported as 0.25. A15U U78C showed a self-cleavage of 0.7. A15U U78A showed a self-cleavage of 0.48. G16U C32A gave a self-cleavage of 0.2. In the case of G16U C23U, the self-cleavage is reported as 0.16. A18C G42A showed a self-cleavage of 0.17. For C17G U25A, the self-cleavage was 0.09. C17G U25G gave a self-cleavage of 0.06. For C17G U25C, the self-cleavage was 0.11. Work on G16C U72A yielded a self-cleavage of 0.3. Variant G16U A28U has a self-cleavage of 0.26. G16U A28G gave a self-cleavage of 0.18. For A15U U74C, the self-cleavage was 0.97. With A15U U74A the self-cleavage was 1.02. Work on A15U U74G yielded a self-cleavage of 0.97. Work on A18C C37A yielded a self-cleavage of 0.33. Work on G16A U58A yielded a self-cleavage of 0.12. In the case of G16C A47G, the self-cleavage is reported as 0.25. With G16C A21U the self-cleavage was 0.1. G16C A21G showed a self-cleavage of 0.32. C17G G53C gave a self-cleavage of 0.45. With G16U U78C the self-cleavage was 0.27. With C17G U41A the self-cleavage was 0.25. With C17G U41G the self-cleavage was 0.08. In the case of A18C, the self-cleavage is reported as 0.41. For A18C C40A, the self-cleavage was 0.34. Work on C17G U48C yielded a self-cleavage of 0.2. With G16A A35G the self-cleavage was 1.02. For G16A, the self-cleavage was 0.34. In the case of G16U, the self-cleavage is reported as 0.42. For G16C, the self-cleavage was 0.35. Variant G16A U43A has a self-cleavage of 0.74. In the case of G16A U43C, the self-cleavage is reported as 0.39. In the case of G16C U51A, the self-cleavage is reported as 0.11. G16C U51G gave a self-cleavage of 0.52. In the case of G16C G52U, the self-cleavage is reported as 0.48. In the case of C17A C62G, the self-cleavage is reported as 0.17. For C17G A56G, the self-cleavage was 0.38. Work on C17G C34G yielded a self-cleavage of 0.36. In the case of C17U U74A, the self-cleavage is reported as 1.02. Work on C17U U74C yielded a self-cleavage of 0.97. With C17A U31A the self-cleavage was 0.15. Work on G16C G36U yielded a self-cleavage of 0.17. Variant C17A U43C has a self-cleavage of 0.32.

Reference: the RNAGym collection of RNA variant scans (doi:10.1093/nar/gkz1192)
